Experimental findings from the supplement of paper PMC9112550, “Optimization of the antimicrobial peptide Bac7 by deep mutational scanning” (BMC Biology, 2022) are described below.

The subject of this data set is Escherichia coli TOP10. The data set can be described thus: shrunken log2 fold change of peptide-encoding DNA abundance (4.5 h post-induction vs induction); higher = less antimicrobial activity (less host growth inhibition). Conditions: time post-induction: 4.5 h; library: site-saturation at positions 5, 18, 19, 20.
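Also: peptides expressed intracellularly from a pBAD plasmid library in pooled LB shake-flask culture, induced with 0.3% L-arabinose, DNA abundance read by NGS, three biological replicates, DESeq2 with apeglm shrinkage.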

Regarding RRIRWRPPRLPRPRPRPLPQPRP, the “shrunken log2 fold change” value was 0.248.
In the case of RRIRTRPPRLPRPRPRPARIPRP it was -0.0205; in that of RRIRVRPPRLPRPRPRPQSYPRP, -0.461; in that of RRIRERPPRLPRPRPRPSSWPRP, -0.0518.
As for RRIRQRPPRLPRPRPRPIYEPRP, the figure is -0.0255; as for RRIRCRPPRLPRPRPRPISYPRP, -0.485.
As for RRIRERPPRLPRPRPRPEVKPRP, the figure is -0.0524.
Consider RRIRYRPPRLPRPRPRPMRNPRP, for which the “shrunken log2 fold change” value was 0.174.
As for RRIRVRPPRLPRPRPRPIWLPRP, the figure is -0.106; as for RRIRCRPPRLPRPRPRPHEWPRP, 0.00702.
Turning to RRIRCRPPRLPRPRPRPSTVPRP, the “shrunken log2 fold change” value is -0.443.
In the case of RRIRGRPPRLPRPRPRPFDCPRP it was -0.208; in that of RRIRHRPPRLPRPRPRPSNAPRP, -0.38; in that of RRIRHRPPRLPRPRPRPGCEPRP, 0.103.
For the sequence RRIRNRPPRLPRPRPRPLAKPRP, the “shrunken log2 fold change” value turned out to be 0.249.
Consider RRIRERPPRLPRPRPRPQLSPRP, for which the “shrunken log2 fold change” value worked out at 0.1.
For the sequence RRIRIRPPRLPRPRPRPLSHPRP, the “shrunken log2 fold change” value was -0.0521.
As for RRIRHRPPRLPRPRPRPMSTPRP, the figure is -0.12; as for RRIRPRPPRLPRPRPRPNSQPRP, -0.314; as for RRIRTRPPRLPRPRPRPWPKPRP, 0.218.
As for RRIRTRPPRLPRPRPRPNRGPRP, the figure is -0.0939.
For the sequence RRIRIRPPRLPRPRPRPYRHPRP, the “shrunken log2 fold change” value was -0.0614.
As for RRIRFRPPRLPRPRPRPQSCPRP, the figure is -0.0102; as for RRIRNRPPRLPRPRPRPQHWPRP, 0.13; as for RRIRGRPPRLPRPRPRPLCWPRP, 0.774.
Regarding RRIRKRPPRLPRPRPRPMFSPRP, the “shrunken log2 fold change” value is -0.0859.
In the case of RRIRHRPPRLPRPRPRPANTPRP it was -0.0313.
As for RRIRERPPRLPRPRPRPQWNPRP, the figure is -0.33; as for RRIRTRPPRLPRPRPRPKTFPRP, -0.00423; as for RRIRYRPPRLPRPRPRPETAPRP, 0.00332.
As for RRIRMRPPRLPRPRPRPDNNPRP, the figure is 0.274; as for RRIRKRPPRLPRPRPRPYGKPRP, -0.154.
For RRIRDRPPRLPRPRPRPQAMPRP, the “shrunken log2 fold change” value came to 0.133.
Turning to RRIRCRPPRLPRPRPRPPKPPRP, the “shrunken log2 fold change” value worked out at 0.692.
In the case of RRIRIRPPRLPRPRPRPPSAPRP it was 0.369; in that of RRIRGRPPRLPRPRPRPEWAPRP, 1.07; in that of RRIRRRPPRLPRPRPRPDIHPRP, -0.122.
As for RRIRERPPRLPRPRPRPDCPPRP, the figure is -0.559; as for RRIRDRPPRLPRPRPRPLIKPRP, 0.153.
In the case of RRIRWRPPRLPRPRPRPWNGPRP it was 0.0206; in that of RRIRGRPPRLPRPRPRPCICPRP, 0.102.
Take RRIRYRPPRLPRPRPRPVRQPRP: the “shrunken log2 fold change” value worked out at 0.132.
As for RRIRDRPPRLPRPRPRPLNIPRP, the figure is -0.161; as for RRIRWRPPRLPRPRPRPNPKPRP, 0.0369.
In the case of RRIRFRPPRLPRPRPRPWPHPRP it was -0.132; in that of RRIRWRPPRLPRPRPRPRQVPRP, 0.16.
In the case of RRIRPRPPRLPRPRPRPDGKPRP it was 0.25; in that of RRIRRRPPRLPRPRPRPQQKPRP, 0.011; in that of RRIRSRPPRLPRPRPRPAGPPRP, 0.493.
Turning to RRIRDRPPRLPRPRPRPRATPRP, the “shrunken log2 fold change” value was found to be 0.614.
As for RRIRYRPPRLPRPRPRPDGFPRP, the “shrunken log2 fold change” value is -0.418.
In the case of RRIRVRPPRLPRPRPRPHTRPRP it was -0.178; in that of RRIRGRPPRLPRPRPRPEKVPRP, 0.417.
RRIRYRPPRLPRPRPRPNFSPRP: the “shrunken log2 fold change” value is -0.401.
In the case of RRIRARPPRLPRPRPRPCNLPRP it was -0.314; in that of RRIRMRPPRLPRPRPRPLFVPRP, 0.286.
As for RRIRPRPPRLPRPRPRPCVTPRP, the figure is 0.15; as for RRIRGRPPRLPRPRPRPKYIPRP, 0.167.
In the case of RRIRNRPPRLPRPRPRPRMYPRP it was -0.613; in that of RRIRERPPRLPRPRPRPHKEPRP, -0.189.
As for RRIRCRPPRLPRPRPRPFKKPRP, the “shrunken log2 fold change” value is -0.319.
As to RRIRKRPPRLPRPRPRPLSCPRP, the “shrunken log2 fold change” value worked out at 0.0262.
For the sequence RRIRARPPRLPRPRPRPSMCPRP, the “shrunken log2 fold change” value was -0.081.
In the case of RRIRSRPPRLPRPRPRPIIFPRP, the “shrunken log2 fold change” value was -0.35.
As for RRIRVRPPRLPRPRPRPHALPRP, the figure is -0.129; as for RRIRGRPPRLPRPRPRPIDKPRP, 1.2; as for RRIRERPPRLPRPRPRPDTRPRP, 0.0127.
For RRIRWRPPRLPRPRPRPENLPRP, the “shrunken log2 fold change” value amounted to 0.0583.
In the case of RRIRCRPPRLPRPRPRPWEDPRP it was 0.156.
With RRIRFRPPRLPRPRPRPVCYPRP, the “shrunken log2 fold change” value was -0.495.
For the sequence RRIRTRPPRLPRPRPRPWMWPRP, the “shrunken log2 fold change” value was 0.101.
In the case of RRIRVRPPRLPRPRPRPVTVPRP it was -0.0359; in that of RRIRMRPPRLPRPRPRPISGPRP, 0.0247.
In the case of RRIRKRPPRLPRPRPRPAELPRP it was 0.552.
As for RRIRHRPPRLPRPRPRPYMCPRP, the figure is -0.536.
For the sequence RRIRRRPPRLPRPRPRPQHNPRP, the “shrunken log2 fold change” value is 0.0256.
As for RRIRIRPPRLPRPRPRPRVRPRP, the figure is 0.112; as for RRIRWRPPRLPRPRPRPMYIPRP, -0.144; as for RRIRDRPPRLPRPRPRPYHWPRP, 0.0299.
As for RRIRCRPPRLPRPRPRPKFHPRP, the figure is -0.498; as for RRIRNRPPRLPRPRPRPECIPRP, 2.1.
As for RRIRWRPPRLPRPRPRPTLVPRP, the figure is -0.212.
In the case of RRIRVRPPRLPRPRPRPTCQPRP, the “shrunken log2 fold change” value was -0.035.
In the case of RRIRVRPPRLPRPRPRPKLDPRP it was 0.116; in that of RRIRKRPPRLPRPRPRPCNQPRP, 0.0585; in that of RRIRPRPPRLPRPRPRPINFPRP, -0.168.
As for RRIRKRPPRLPRPRPRPINRPRP, the figure is -0.159.
Turning to RRIRKRPPRLPRPRPRPYQWPRP, the “shrunken log2 fold change” value is -0.143.
In the case of RRIRVRPPRLPRPRPRPWNEPRP it was -0.0886; in that of RRIRARPPRLPRPRPRPMWWPRP, 0.166; in that of RRIRKRPPRLPRPRPRPLQEPRP, 0.0634.
In the case of RRIRHRPPRLPRPRPRPHYYPRP it was -0.216.
As for RRIRRRPPRLPRPRPRPLMCPRP, the figure is -0.13; as for RRIRQRPPRLPRPRPRPSYHPRP, -0.178.
Consider RRIRVRPPRLPRPRPRPFCYPRP, for which the “shrunken log2 fold change” value is -0.133.
In the case of RRIRHRPPRLPRPRPRPPDMPRP it was 0.0267.
Consider RRIRIRPPRLPRPRPRPTSEPRP, for which the “shrunken log2 fold change” value was 0.00551.
With RRIRDRPPRLPRPRPRPYLQPRP, the “shrunken log2 fold change” value is -0.0926.
On to RRIRARPPRLPRPRPRPLMMPRP, for which the “shrunken log2 fold change” value turned out to be 0.205.
For the sequence RRIRNRPPRLPRPRPRPDIAPRP, the “shrunken log2 fold change” value was -0.0447.
In the case of RRIRMRPPRLPRPRPRPVEAPRP it was 0.396.
In the case of RRIRQRPPRLPRPRPRPLDVPRP it was -0.0496.
As for RRIRYRPPRLPRPRPRPPIDPRP, the figure is -0.35; as for RRIRVRPPRLPRPRPRPITVPRP, -1.15; as for RRIRSRPPRLPRPRPRPWELPRP, 0.637.
Regarding RRIRGRPPRLPRPRPRPTAEPRP, the “shrunken log2 fold change” value was determined as 3.04.
In the case of RRIRTRPPRLPRPRPRPNIGPRP it was -0.0888.
Consider RRIRWRPPRLPRPRPRPPRYPRP, for which the “shrunken log2 fold change” value was 0.374.
As for RRIRHRPPRLPRPRPRPNFPPRP, the figure is -0.189.
Consider RRIRPRPPRLPRPRPRPTLKPRP, for which the “shrunken log2 fold change” value worked out at 0.114.
As for RRIRSRPPRLPRPRPRPAYVPRP, the figure is -0.137.
As for RRIRWRPPRLPRPRPRPMMHPRP, the figure is 0.159; as for RRIRLRPPRLPRPRPRPSPTPRP, 1.06.
In the case of RRIRSRPPRLPRPRPRPYVTPRP it was -0.266; in that of RRIRWRPPRLPRPRPRPIQCPRP, -0.0122.
With RRIRKRPPRLPRPRPRPDSTPRP, the “shrunken log2 fold change” value was -0.0499.
In the case of RRIRIRPPRLPRPRPRPANYPRP it was -0.33; in that of RRIRERPPRLPRPRPRPGVHPRP, -0.139.
Turning to RRIRFRPPRLPRPRPRPKKNPRP, the “shrunken log2 fold change” value was 0.0769.
On to RRIRVRPPRLPRPRPRPILEPRP, for which the “shrunken log2 fold change” value is 0.13.
As to RRIRARPPRLPRPRPRPRLEPRP, the “shrunken log2 fold change” value came to 0.766.
Regarding RRIRVRPPRLPRPRPRPDPMPRP, the “shrunken log2 fold change” value was -0.0769.
In the case of RRIRYRPPRLPRPRPRPRDWPRP it was 0.0703; in that of RRIRVRPPRLPRPRPRPFRMPRP, -0.247; in that of RRIRRRPPRLPRPRPRPQHYPRP, -0.128.
